# Measured values taken from paper PMC3334289 (Fems Microbiology Letters, 2012).
# B1: His6-tagged MreB (MreB-HIS) (natural protein, E. coli, UniProt P0A9X4 1-347, looked up)
# chain: MLKKFRGMFSNDLSIDLGTANTLIYVKGQGIVLNEPSVVAIRQDRAGSPKSVAAVGHDAKQMLGRTPGNIAAIRPMKDGVIADFFVTEKMLQHFIKQVHSNSFMRPSPRVLVCVPVGATQVERRAIRESAQGAGAREVFLIEEPMAAAIGAGLPVSEATGSMVVDIGGGTTEVAVISLNGVVYSSSVRIGGDRFDEAIINYVRRNYGSLIGEATAERIKHEIGSAYPGDEVREIEVRGRNLAEGVPRGFTLNSNEILEALQEPLTGIVSAVMVALEQCPPELASDISERGMVLTGGGALLRNLDRLLMEETGIPVVVAEDPLTCVARGGGKALEMIDMHGGDLFSEE
# Molecular target: the molecule itself
# Assay: sedimentation of polymers
protein,measurement,value
B1,binding result,binds
